Reference: US20250289871A1

Tests used:
[1] = target: SARS-CoV-2 D614G spike protein (authentic virus) (SARS-CoV-2) (UniProt P0DTC2); assay: cell-based or functional assay
[2] = target: SARS-CoV-2 Delta + T51I + T95I spike protein (authentic virus) (SARS-CoV-2) (UniProt P0DTC2); assay: cell-based or functional assay

In the case of cilgavimab (AZD1061) (antibody), the Authentic Virus Neutralization IC50 [1] is reported as 0.066 µg/mL and the Authentic Virus Neutralization IC50 [2] is reported as 0.014 µg/mL.
